Patent US20230104769A1 (MABWELL SHANGHAI BIOSCIENCE, published 2023)

How the values were obtained:
[1] = target: T1, human PD-1-hFc (NCBI accession No.: NP_005009.2, 21aa-167aa, Lot: 20180329) (human, UniProt Q15116 21-167); test: competition ELISA, plate-bound PD-1-hFc, competitor PD-L2-hFc-Biotin 2 µg/mL; competitor PD-L2
T1 construct: range 21-167; not shown: human Fc (hFc)
Description: (§1) Afterwards, HRP-streptavidin (Cat: 52438, Sigma) which was diluted at a dilution of 1:2000 was added to the plate for reacting for 30 min. Later, TMB substrate was added to develop color for 15 min, which was followed by the addition of 2 M HCl to terminate the reaction and then the plate was detected by a microplate reader. With 630 nm as reference wavelength, the absorbance at 450 nm (A450 nm-630 nm) of each well in the plate was read and recorded.

[2] = target: T2, recombinant human PD-1 protein (NCBI accession No.: NP_005009.2, 21aa-167aa) (human, UniProt Q15116 21-167); test: ELISA, biotinylated h317 on plate-bound PD-1
T2 construct: range 21-167; also called recombinant human PD-1 extracellular domain protein; PD-1-ECD
T2 sequence (Q15116 21-167 limits assumed, form in doubt): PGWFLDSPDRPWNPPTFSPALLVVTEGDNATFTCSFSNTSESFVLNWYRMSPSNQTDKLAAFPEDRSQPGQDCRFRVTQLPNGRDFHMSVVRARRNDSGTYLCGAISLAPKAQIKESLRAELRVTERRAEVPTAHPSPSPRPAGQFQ
Description: (§2) The plates were washed three times with PBS subsequently, and 5% BSA-PBS was added for blocking for 60 min at 37° C. […] Again, the plates were washed four times with PBST, then HRP-streptavidin (Cat: 019-035-098, Jackson immuno Research) with a dilution of 1:100 was added for a 30 min incubation at 37° C. Once again, the plates were washed four times with PBST, and TMB substrate was added for developing color through incubating for 10 min at 37° C., then the reaction was terminated by adding 2 M HCl. With 630 nm as reference wavelength, the absorbance at a wavelength of 450 nm (A450 nm-630 nm) of each well in the plates was read and recorded.

[3] = target: T3, cynomolgus monkey PD-1 (Cat: 90311-C08H, Sino Biological Inc.) (cynomolgus monkey, UniProt B0LAJ3 25-170); test: ELISA, biotinylated h317 on plate-bound PD-1
T3 construct: Bought recombinant protein; not shown: The vendor's tag
T3 sequence (B0LAJ3 entry or part of it C08H C08H limits assumed): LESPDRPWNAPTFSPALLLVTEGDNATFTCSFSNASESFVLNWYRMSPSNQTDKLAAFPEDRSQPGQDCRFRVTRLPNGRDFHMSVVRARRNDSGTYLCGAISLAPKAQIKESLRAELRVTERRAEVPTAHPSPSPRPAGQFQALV
Description: as §2

N49A = target: T4, N49A; test: flow cytometry on transfected HEK293 cells, antibody 2 µg/ml, goat anti-human IgG(Fc)-Cy5; no negative-control bar is drawn
T4 construct: also called full-length human PD-1 N49A expressed on HEK293 cells; PD-1-mut N49A; not shown: EGFP of the expression vector, if it is fused to PD-1
T4 sequence (chain, as listed by the source N49A N49A limits assumed): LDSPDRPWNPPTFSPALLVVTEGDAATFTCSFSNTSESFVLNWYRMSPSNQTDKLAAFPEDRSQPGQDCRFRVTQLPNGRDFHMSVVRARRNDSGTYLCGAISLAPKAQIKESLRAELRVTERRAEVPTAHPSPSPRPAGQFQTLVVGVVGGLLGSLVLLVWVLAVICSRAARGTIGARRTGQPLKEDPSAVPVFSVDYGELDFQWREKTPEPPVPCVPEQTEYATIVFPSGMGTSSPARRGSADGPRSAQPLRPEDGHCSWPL
Description: (§3) The mutants obtained were inserted into an expression vector carrying EGFP to construct five plasmids expressing full-length human PD-1 (WT, N49A, N58A., N116A, N74A). […] 2 days after the transfection, the cells were collected to a 96-well plate, centrifuged at 1500 rpm for 2 minutes, and the supernatants in the wells were discarded. […] The working concentration of the primary antibodies was 2 μg/ml, and cells without primary antibodies added were used as negative controls. The mixtures obtained were centrifuged at 1500 rpm for 2 minutes, and supernatants were discarded. The cells in each well were resuspended by adding 200 μl PBS and the suspensions obtained were then centrifuged at 1500 rpm for 2 minutes, then supernatants were discarded. Later, the obtained cells were incubated with 200 μl goat anti-human IgG(Fc)-Cy5 (Cat: 12136, Lot: 017M4800V, Sigma) diluted with 5% BSA added into each well for 1 h at room temperature, then centrifuged at 1500 rpm for 2 minutes, and supernatants were discarded. The cells were resuspended by adding 200 μl PBS and the suspensions obtained were then centrifuged at 1500 rpm for 2 minutes, then supernatants were discarded. The cells again were resuspended by adding 200 μl PBS thereto and detected by flow cytometry (B49007AD, SNAW31211).

N74A = target: T5, N74A; test: as above
T5 construct: also called full-length human PD-1 N74A expressed on HEK293 cells; PD-1-mut N74A; not shown: EGFP of the expression vector, if it is fused to PD-1
T5 sequence (chain, as listed by the source N74A N74A limits assumed): as the sequence (chain, as listed by the source N49A N49A limits assumed) above, with A25N, N50A counted along it
Description: as §3

[4] = target: T6, full-length human PD-1 N58A expressed on HEK293 cells (human, UniProt Q15116 25-288); test: flow cytometry on transfected HEK293 cells
T6 construct: whole, on cells; Expression vector carries EGFP; the mutation removes the N-glycosylation site; also called PD-1-mut N58A
T6 sequence (Q15116 25-288 N58A): as the sequence (chain, as listed by the source N49A N49A limits assumed) above, with A25N, N34A counted along it
Description: as §3

[5] = target: CTLA4 (Cat: 11159-H08H, Sino Biological Inc.) (human, UniProt P16410 36-162); test: ELISA, plate coated with the protein at 1 µg/mL, biotinylated h317, HRP-streptavidin
Chain of CTLA4 (Cat: 11159-H08H, Sino Biological Inc.) (P16410 36-162 limits assumed): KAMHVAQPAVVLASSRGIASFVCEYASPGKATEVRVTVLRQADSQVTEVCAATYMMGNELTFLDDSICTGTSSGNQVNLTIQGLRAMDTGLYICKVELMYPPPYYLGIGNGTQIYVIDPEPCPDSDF
Description: as §2, with “Immuno” for “immuno”

[6] = target: T2, recombinant human PD-1 protein (NCBI …); test: as above
Description: as §2, with “Immuno” for “immuno”

[7] = target: CD28 (Cat: 11524-HCCH, Sino Biological Inc.) (human, UniProt P10747 19-152); test: as above
Description: as §2, with “Immuno” for “immuno”

[8] = target: T1, human PD-1-hFc (NCBI accession No.: …); test: competition ELISA, plate-bound PD-1-hFc, competitor PD-L1-mFc 1 µg/mL; competitor PD-L1
Description: as §1, with “Afterwards, HRP-anti-mouse Fc” for “Afterwards, HRP-streptavidin”, “(Cat: 115-035-071, Jackson Immuno Research)” for “(Cat: 52438, Sigma)”, “of 1:5000” for “of 1:2000”, “for 45” for “for 30”, “substrate (Cat: ME142, Beijing Taitianhe Biotech Co., Ltd.)” for “substrate”

T1 sequence (Q15116 21-167 limits assumed, form in doubt): as the sequence (Q15116 21-167 limits assumed, form in doubt) above

B1: h317 (humanized anti-human PD-1 antibody) (antibody, V domains shown)
VH: EVQLVESGGGLVKPGGSLRLSCAASGFTFSSYDMSWVRQAPGKGLEWVATISGGGSYTYYPDSVKGRFTISRDNAKNSLYLQMNSLRAEDTAVYYCASPDSSGVAYWGQGTLVTVSS
VL: DIVMTQSPLSLPVTPGEPASITCKASQDVETVVAWYLQKPGQSPRLLIYWASTRHTGVPDRFSGSGSGTDFTLKISRVEAEDVGVYYCQQYSRYPWTFGQGTKL
notes: also called h317-biotin; biotinylated h317
**Q.** What does the source list for B1?
**A.** IC50 [1]: 1.2 nM; EC50 [2]: 0.0047 nM; EC50 [3]: 0.0182 nM; binding result (N49A): binds; binding result (N74A): binds; binding result [4]: no binding (tested: 2 µg/ml); binding result [5]: no binding (tested: 1 nM (log(nM) 0 on the axis)); EC50 (read off the curve) [6]: ~0.001 nM; binding result [7]: no binding (tested: 1 nM (log(nM) 0 on the axis)); IC50 [8]: 1.4 nM
